The source of these data is patent publication US20140294828A1 (COMPLIX, published 2014).

For assay [1], the target named is T1, bL4_C36 (biotin-GSGS-C36-NH2, HIV-1 HXB2 Env gp41 HR2 peptide) (HIV-1 (HXB2 strain), N-terminal biotin; C-terminal amide).
T1 construct: also called C-peptide
T1 peptide: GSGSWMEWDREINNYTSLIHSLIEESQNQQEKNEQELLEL
Put plainly: ELISA, peptide on neutravidin-coated plate, Penta-His-HRP detection. (In general: ELISA stands for enzyme-linked immunosorbent assay.)

The target of assay [2] is T1, bL4_C36 (biotin-GSGS-C36-NH2, HIV-1 …). Briefly: SPR, bL4_C36 immobilized on a streptavidin sensor chip, Alphabody injected at 250 to 7.8 nM, Langmuir model (phase 1).
Assay [3] has the same target. Briefly: SPR, bL4_C36 on streptavidin chip, Langmuir model. (Surface plasmon resonance follows binding to a sensor surface in real time, without labels.)
For assay [4] the target is unchanged. Put plainly: ELISA, bL4_C36 immobilized on neutravidin-coated plates, detection with Penta-His-HRP antibody, A450nm.
Assay [5] shares this target. Briefly: SPR, bL4_C36 on streptavidin chip; disulfide dimer, bidentate binding.
Assay [6] shares this target. Put plainly: SPR, bL4_C36 immobilized on a streptavidin sensor chip, two-step kinetic binding model, phase 1.
Assay [7] has the same target. Briefly: SPR, two-step model, first fast association phase.
The target is the same in assay [8]. Put plainly: SPR, bL4_C36 immobilized on a streptavidin sensor chip, two-step kinetic binding model, phase 2 (dimensionless).
Assay [9] has the same target. Put plainly: SPR, two-step model, second phase.
For assay [10] the target is unchanged. Put plainly: SPR, two-step model, global KD.
For assay [11] the target is unchanged. Briefly: SPR, bL4_C36 immobilized on a streptavidin sensor chip, two-step kinetic binding model, global constant of phases 1+2 (KD1*KD2).

B1: single-chain Alphabody scAB_Env03 (designed binder)
chain: MGHHHHHHHHHHSSGHIEGRHMSIEEIQKPIATIQEAIAWIQKKIYMMTGGSGGGSGGGSGGGSGMSIEEIQKQIAAIQKQIAAIQKQIYAMTGGSGGGSGGGSGGGSGMSIEEIQKQIVAIMEQIVAIVKQISAMTP
notes: expressed soluble in E. coli with an N-terminal His10 tag; not shown: N-terminal 10-histidine tag from pET16b
For orientation: EC50 means the concentration needed to bring the measured effect to its halfway point. The low end stands for a more potent agent, the high end for a less potent agent. The term Kd denotes the free concentration of one partner at which half of the binding sites on the other are occupied at equilibrium, for simple one-to-one binding. In general, EC50 (read off the curve) refers to the midpoint of the concentration-response curve. B1 had an EC50 in assay [1] of around 6 nM. The dissociation constant Kd in assay [2] is 211 nM; in assay [3] it was 200 nM. In addition, the “EC50 (read off the curve)” value in assay [4] is around 5 nM.

B2: single-chain Alphabody scAB_Env05 (designed binder)
chain: MGHHHHHHHHHHSSGHIEGRHMSIEEIQKHIASIQEYIAWIQKEIYRMTGGSGGGSGGGSGGGSGMSIEEIQKQIAAIQKQIAAIQKQIYAMTGGSGGGSGGGSGGGSGMSIEEIQKQILAIMEQIYAIVKQINAMTP
notes: Soluble construct with N-terminal His10 tag (pET16b)
As a reminder, the koff is the first-order rate constant of dissociation. Higher therefore signals fast dissociation. Broadly, the kon is the rate constant with which the complex forms. Read a low kon as slow association. As for B2, in assay [2], the Kd was 3930 nM, the koff is 0.32 s⁻¹ and the kon was 81000 M⁻¹ s⁻¹. Moreover, in [3], the affinity, expressed as Kd, was 4000 nM. Also, the “EC50 (read off the curve)” value in [4] was around 40 nM.

B3: single-chain Alphabody scAB_Env02 (designed binder)
chain: MGHHHHHHHHHHSSGHIEGRHMSIEEIQKPIASIQELIATIQKYIYIMTGGSGGGSGGGSGGGSGMSIEEIQKQIAAIQKQIAAIQKQIYAMTGGSGGGSGGGSGGGSGMSIEEIQKQIQAITEQIIAISKQIIAMTP
notes: as for B2
B3: in assay [4], the “EC50 (read off the curve)” value is around 20 nM.

B4: single-chain Alphabody scAB_Env03_KC (designed binder)
chain: MGHHHHHHHHHHSSGHIEGRHMSIEEIQKPIATIQEAIAWIQKKIYMMTGGSGGGSGGGSGGGSGMSIEEIQKQIAAIQCQIAAIQKQIYAMTGGSGGGSGGGSGGGSGMSIEEIQKQIVAIMEQIVAIVKQISAMTP
modifications: Interchain disulfide between Cys80 of chain 1 and Cys80 of chain 2 (homodimer; paragraph 268, and FIG.11 prints 'scAB_Env03_KC (dimer)').
notes: also called Env03 Cys-mutant
Consider B4, for which, in assay [5], binding was characterised by a dissociation constant (Kd) of 0.62 nM, the koff worked out at 2.4e-05 s⁻¹ and the kon was found to be 38000 M⁻¹ s⁻¹.

B5: single-chain Alphabody scAB_Env03_PA (designed binder)
chain: MGHHHHHHHHHHSSGHIEGRHMSIEEIQKAIATIQEAIAWIQKKIYMMTGGSGGGSGGGSGGGSGMSIEEIQKQIAAIQKQIAAIQKQIYAMTGGSGGGSGGGSGGGSGMSIEEIQKQIVAIMEQIVAIVKQISAMTP
notes: Made by the same protocol as the parent (N-terminal His10 tag); The substitution has no printed number
In the case of B5, the “KD (phase 1)” value in [6] was found to be 558 nM. In assay [7], this molecule displayed a kon of around 100000 M⁻¹ s⁻¹. In assay [8], the “KD (phase 2)” value was 0.024 (-). Further, the koff in assay [9] was around 0.0001 s⁻¹. The values for the Kd in assay [10] and in [11] were around 10 nM and 13 nM, respectively.

B6: single-chain Alphabody scAB_Env04 (designed binder)
chain: MGHHHHHHHHHHSSGHIEGRHMSIEEIQKPIATIQETIAWIQKTIYGMTGGSGGGSGMSIEEIQKQIAAIQKQIAAIQKQIYAMTGGSGGGSGGGSGGGSGMSIEEIQKQIRAIFEQIVAICKQIIAMTP
notes: as for B2
In [2], B6 registered a Kd of 167 nM, a koff of 0.1 s⁻¹ and a kon of 570000 M⁻¹ s⁻¹. The Kd in [3] amounted to 200 nM. Moreover, the “EC50 (read off the curve)” value in assay [4] is around 20 nM.
